From the supplement of paper PMC11246515
± gives the standard deviation of the averaged measurements.

Test: total protein half-life in vivo (active degradation + dilution); higher = more stable protein
[1] = E. coli NCM3722 delta-clpP delta-lon delta-hslV, growth: N-lim chemostat, doubling time 6 h
[2] = E. coli NCM3722 delta-clpP, growth: N-lim chemostat, doubling time 6 h
[3] = E. coli NCM3722 delta-hslV, growth: N-lim chemostat, doubling time 6 h
[4] = E. coli NCM3722 delta-lon, growth: N-lim chemostat, doubling time 6 h
[5] = E. coli NCM3722 delta-smpB, growth: N-lim chemostat, doubling time 6 h
[6] = wild type E. coli NCM3722, growth: C-lim chemostat, doubling time 3 h
[7] = wild type E. coli NCM3722, growth: C-lim chemostat, doubling time 6 h
[8] = wild type E. coli NCM3722, growth: C-lim chemostat, doubling time 12 h
[9] = wild type E. coli NCM3722, growth: N-lim chemostat, doubling time 6 h
[10] = wild type E. coli NCM3722, growth: N-lim chemostat, doubling time 12 h
[11] = wild type E. coli NCM3722, growth: P-lim chemostat, doubling time 6 h
[12] = wild type E. coli NCM3722, growth: P-lim chemostat, doubling time 12 h

## MQYNPLGKTDLRVSRLCLGCMTFGEPDRGNHAWTLPEESSRPIIKRALEGGINFFDTANSYSDGSSEEIVGRALRDFARREDVVVATKVFHRVGDLPEGLSRAQILRSIDDSLRRLGMDYVDILQIHRWDYNTPIEETLEALNDVVKAGKARYIGASSMHASQFAQALELQKQHGWAQFVSMQDHYNLIYREEEREMLPLCYQEGVAVIPWSPLARGRLTRPWGETTARLVSDEVGKNLYKESDENDAQIAERLTGVSEELGATRAQVALAWLLSKPGIAAPIIGTSREEQLDELLNAVDITLKPEQIAELETPYKPHPVVGFK
[1]
  total protein half-life in vivo: 4.533 ± 0.045 h
[2]
  total protein half-life in vivo: 4.47 ± 0.65 h
[3]
  total protein half-life in vivo: 4.55 ± 0.91 h
[4]
  total protein half-life in vivo: 5 ± 0.2 h
[5]
  total protein half-life in vivo: 3.79 ± 0.081 h
[6]
  total protein half-life in vivo: 2.81 ± 0.13 h
[7]
  total protein half-life in vivo: 5.04 ± 0.076 h
[8]
  total protein half-life in vivo: 9.04 ± 0.38 h
[9]
  total protein half-life in vivo: 4.21 ± 0.2 h
[10]
  total protein half-life in vivo: 6.51 ± 0.4 h
[11]
  total protein half-life in vivo: 4.28 ± 0.23 h
[12]
  total protein half-life in vivo: 8.83 ± 0.12 h

## MKAFDLHRMAFDKVPFDFLGEVALRSLYTFVLVFLFLKMTGRRGVRQMSLFEVLIILTLGSAAGDVAFYDDVPMVPVLIVFITLALLYRLVMWLMAHSEKLEDLLEGKPVVIIEDGELAWSKLNNSNMTEFEFFMELRLRGVEQLGQVRLAILETNGQISVYFFEDDKVKPGLLILPSDCTQRYKVVPESADYACIRCSEIIHMKAGEKQLCPRCANPEWTKASRAKRVT
[1]
  total protein half-life in vivo: 6.22 ± 1.1 h
[2]
  total protein half-life in vivo: 6.17 h
[3]
  total protein half-life in vivo: 5.53 h
[4]
  total protein half-life in vivo: 5.11 ± 0.43 h
[5]
  total protein half-life in vivo: 5.8 ± 0.11 h
[7]
  total protein half-life in vivo: > 8 h
[8]
  total protein half-life in vivo: 11.8 h
[10]
  total protein half-life in vivo: > 16 h
[12]
  total protein half-life in vivo: 12.1 ± 0.66 h

## MNDYKMTPGERRATWGLGTVFSLRMLGMFMVLPVLTTYGMALQGASEALIGIAIGIYGLTQAVFQIPFGLLSDRIGRKPLIVGGLAVFAAGSVIAALSDSIWGIILGRALQGSGAIAAAVMALLSDLTREQNRTKAMAFIGVSFGITFAIAMVLGPIITHKLGLHALFWMIAILATTGIALTIWVVPNSSTHVLNRESGMVKGSFSKVLAEPRLLKLNFGIMCLHILLMSTFVALPGQLADAGFPAAEHWKVYLATMLIAFGSVVPFIIYAEVKRKMKQVFVFCVGLIVVAEIVLWNAQTQFWQLVVGVQLFFVAFNLMEALLPSLISKESPAGYKGTAMGVYSTSQFLGVAIGGSLGGWINGMFDGQGVFLAGAMLAAVWLTVASTMKEPPYVSSLRIEIPANIAANEALKVRLLETEGIKEVLIAEEEHSAYVKIDSKVTNRFEIEQAIRQA
[1]
  total protein half-life in vivo: 5.51 h
[2]
  total protein half-life in vivo: 5.38 ± 0.66 h
[4]
  total protein half-life in vivo: 5.73 ± 0.96 h
[5]
  total protein half-life in vivo: 5.16 ± 0.38 h
[6]
  total protein half-life in vivo: 3.17 ± 0.88 h
[7]
  total protein half-life in vivo: 5.45 ± 0.11 h
[8]
  total protein half-life in vivo: 11.2 ± 1.9 h
[9]
  total protein half-life in vivo: 5.15 ± 0.25 h
[10]
  total protein half-life in vivo: 10.1 ± 0.3 h
[11]
  total protein half-life in vivo: 5.42 ± 0.72 h
[12]
  total protein half-life in vivo: 8.82 ± 0.54 h

## MTEHTSSYYAASANKYAPFDTLNESITCDVCVVGGGYTGLSSALHLAEAGFDVVVLEASRIGFGASGRNGGQLVNSYSRDIDVIEKSYGMDTARMLGSMMFEGGEIIRERIKRYQIDCDYRPGGLFVAMNDKQLATLEEQKENWERYGNKQLELLDANAIRREVASDRYTGALLDHSGGHIHPLNLAIGEADAIRLNGGRVYELSAVTQIQHTTPAVVRTAKGQVTAKYVIVAGNAYLGDKVEPELAKRSMPCGTQVITTERLSEDLARSLIPKNYCVEDCNYLLDYYRLTADNRLLYGGGVVYGARDPDDVERLVVPKLLKTFPQLKGVKIDYRWTGNFLLTLSRMPQFGRLDTNIYYMQGYSGHGVTCTHLAGRLIAELLRGDAERFDAFANLPHYPFPGGRTLRVPFTAMGAAYYSLRDRLGV
[2]
  total protein half-life in vivo: 6.23 h
[3]
  total protein half-life in vivo: 5.96 ± 0.34 h
[4]
  total protein half-life in vivo: 3.84 ± 1.7 h
[6]
  total protein half-life in vivo: 0.265 h
[7]
  total protein half-life in vivo: 6.7 h
[8]
  total protein half-life in vivo: 4.55 h
[9]
  total protein half-life in vivo: 1.81 h
[10]
  total protein half-life in vivo: 6.25 ± 7.7 h

## MYVAVKGGEKAIDAAHALQESRRRGDTDLPELSVAQIEQQLNLAVDRVMTEGGIADRELAALALKQASGDNVEAIFLLRAYRTTLAKLAVSEPLDTTGMRLERRISAVYKDIPGGQLLGPTYDYTHRLLDFTLLANGEAPTLTTADSEQQPSPHVFSLLARQGLAKFEEDSGAQPDDITRTPPVYPCSRSSRLQQLMRGDEGYLLALAYSTQRGYGRNHPFAGEIRSGYIDVSIVPEELGFAVNVGELLMTECEMVNGFIDPPGEPPHFTRGYGLVFGMSERKAMAMALVDRALQAPEYGEHATGPAQDEEFVLAHADNVEAAGFVSHLKLPHYVDFQAELELLKRLQQEQNHG
[11]
  total protein half-life in vivo: 0.609 ± 0.46 h
[12]
  total protein half-life in vivo: 1.36 ± 0.41 h

## MSKIRVLSVDDSALMRQIMTEIINSHSDMEMVATAPDPLVARDLIKKFNPDVLTLDVEMPRMDGLDFLEKLMRLRPMPVVMVSSLTGKGSEVTLRALELGAIDFVTKPQLGIREGMLAYNEMIAEKVRTAAKASLAAHKPLSAPTTLKAGPLLSSEKLIAIGASTGGTEAIRHVLQPLPLSSPALLITQHMPPGFTRSFADRLNKLCQIGVKEAEDGERVLPGHAYIAPGDRHMELSRSGANYQIKIHDGPAVNRHRPSVDVLFHSVAKQAGRNAVGVILTGMGNDGAAGMLAMRQAGAWTLAQNEASCVVFGMPREAINMGGVCEVVDLSQVSQQMLAKISAGQAIRI
[1]
  total protein half-life in vivo: 4.85 h
[6]
  total protein half-life in vivo: 2.09 ± 0.19 h
[7]
  total protein half-life in vivo: 3.21 ± 0.2 h
[8]
  total protein half-life in vivo: 5.6 ± 0.28 h
[12]
  total protein half-life in vivo: 9.95 h

## MLDNVLRIATRQSPLALWQAHYVKDKLMASHPGLVVELVPMVTRGDVILDTPLAKVGGKGLFVKELEVALLENRADIAVHSMKDVPVEFPQGLGLVTICEREDPRDAFVSNNYDSLDALPAGSIVGTSSLRRQCQLAERRPDLIIRSLRGNVGTRLSKLDNGEYDAIILAVAGLKRLGLESRIRAALPPEISLPAVGQGAVGIECRLDDSRTRELLAALNHHETALRVTAERAMNTRLEGGCQVPIGSYAELIDGEIWLRALVGAPDGSQIIRGERRGAPQDAEQMGISLAEELLNNGAREILAEVYNGDAPA
[1]
  total protein half-life in vivo: 3.85 ± 1.1 h
[2]
  total protein half-life in vivo: 4.24 ± 0.11 h
[3]
  total protein half-life in vivo: 4.0338 ± 0.0026 h
[4]
  total protein half-life in vivo: 4.87 ± 0.84 h
[5]
  total protein half-life in vivo: 4.04 ± 0.045 h
[6]
  total protein half-life in vivo: 2.81 ± 0.084 h
[7]
  total protein half-life in vivo: 5.48 ± 0.92 h
[9]
  total protein half-life in vivo: 4.12 ± 0.23 h
[10]
  total protein half-life in vivo: 7.009 ± 0.051 h
[11]
  total protein half-life in vivo: 5.475 ± 0.013 h
[12]
  total protein half-life in vivo: 11.4 ± 0.85 h

## METNIVEVENFVQQSEERRGSAFTQEVKRYLERYPNTQYVDVLLTDLNGCFRGKRIPVSSLKKLEKGCYFPASVFAMDILGNVVEEAGLGQEMGEPDRTCVPVLGSLTPSAADPEFIGQMLLTMVDEDGAPFDVEPRNVLNRLWQQLRQRGLFPVVAVELEFYLLDRQRDAEGYLQPPCAPGTDDRNTQSQVYSVDNLNHFADVLNDIDELAQLQLIPADGAVAEASPGQFEINLYHTDNVLEACDDALALKRLVRLMAEKHKMHATFMAKPYEEHAGSGMHIHISMQNNRGENVLSDAEGEDSPLLKKMLAGMIDLMPSSMALLAPNVNSYRRFQPGMYVPTQASWGHNNRTVALRIPCGDRHNHRVEYRVAGADANPYLVMAAIFAGILHGLDNELPLQEEVEGNGLEQEGLPFPIRQSDALGEFIENDHLRRYLGERFCHVYHACKNDELLQFERLITETEIEWMLKNA
[1]
  total protein half-life in vivo: 3.73 ± 1.2 h
[2]
  total protein half-life in vivo: 2.89 ± 0.19 h
[3]
  total protein half-life in vivo: 0.535 ± 0.066 h
[5]
  total protein half-life in vivo: 0.507 h
[6]
  total protein half-life in vivo: 0.748 h
[7]
  total protein half-life in vivo: 1.47 h
[8]
  total protein half-life in vivo: 0.976 h
